# Laboratory results published in IntAct's records for PubMed 31515488.
# B1: Transcription factor 12 (Homo sapiens), Q99081-3 (parent)
# chain: MNPQQQRMAAIGTDKELSDLLDFSAMFSPPVNSGKTRPTTLGSSQFSGSGIDERGGTTSWGTSGQPSPSYDSSRGFTDSPHYSDHLNDSRLGAHEGLSPTPFMNSNLMGKTSERGSFSLYSRDTGLPGCQSSLLRQDLGLGSPAQLSSSGKPGTAYYSFSATSSRRRPLHDSAALDPLQAKKVRKVPPGLPSSVYAPSPNSDDFNRESPSYPSPKPPTSMFASTFFMQDGTHNSSDLWSSSNGMSQPGFGGILGTSTSHMSQSSSYGNLHSHDRLSYPPHSVSPTDINTSLPPMSSFHRGSTSSSPYVAASHTPPINGSDSILGTRGNAAGSSQTGDALGKALASIYSPDHTSSSFPSNPSTPVGSPSPLTGTSQWPRPGGQAPSSPSYENSLHSLKNRVEQQLHEHLQDAMSFLKDVCEQSRMEDRLDRLDDAIHVLRNHAVGPSTSLPAGHSDIHSLLGPSHNAPIGSLNSNYGGSSLVASSRSASMVGTHREDSVSLNGNHSVLSSTVTTSSTDLNHKTQENYRGGLQSQSGTVVTTEIKTENKEKDENLHEPPSSDDMKSDDESSQKDIKVSSRGRTSSTNEDEDLNPEQKIEREKERRMANNARERLRVRDINEAFKELGRMCQLHLKSEKPQTKLLILHQAVAVILSLEQQVRERNLNPKAACLKRREEEKVSAVSAEPPTTLPGTHPGLSETTNPMGHM
# B2: Tyrosine-protein phosphatase non-receptor type 9 (Homo sapiens), P43378 (parent)
# chain: MEPATAPRPDMAPELTPEEEQATKQFLEEINKWTVQYNVSPLSWNVAVKFLMARKFDVLRAIELFHSYRETRRKEGIVKLKPHEEPLRSEILSGKFTILNVRDPTGASIALFTARLHHPHKSVQHVVLQALFYLLDRAVDSFETQRNGLVFIYDMCGSNYANFELDLGKKVLNLLKGAFPARLKKVLIVGAPIWFRVPYSIISLLLKDKVRERIQILKTSEVTQHLPRECLPENLGGYVKIDLATWNFQFLPQVNGHPDPFDEIILFSLPPALDWDSVHVPGPHAMTIQELVDYVNARQKQGIYEEYEDIRRENPVGTFHCSMSPGNLEKNRYGDVPCLDQTRVKLTKRSGHTQTDYINASFMDGYKQKNAYIGTQGPLENTYRDFWLMVWEQKVLVIVMTTRFEEGGRRKCGQYWPLEKDSRIRFGFLTVTNLGVENMNHYKKTTLEIHNTEERQKRQVTHFQFLSWPDYGVPSSAASLIDFLRVVRNQQSLAVSNMGARSKGQCPEPPIVVHCSAGIGRTGTFCSLDICLAQLEELGTLNVFQTVSRMRTQRAFSIQTPEQYYFCYKAILEFAEKEGMVSSGQNLLAVESQ
# B3: Keratin, type II cytoskeletal 2 epidermal (Homo sapiens), P35908 (parent)
# chain: MSCQISCKSRGRGGGGGGFRGFSSGSAVVSGGSRRSTSSFSCLSRHGGGGGGFGGGGFGSRSLVGLGGTKSISISVAGGGGGFGAAGGFGGRGGGFGGGSSFGGGSGFSGGGFGGGGFGGGRFGGFGGPGGVGGLGGPGGFGPGGYPGGIHEVSVNQSLLQPLNVKVDPEIQNVKAQEREQIKTLNNKFASFIDKVRFLEQQNQVLQTKWELLQQMNVGTRPINLEPIFQGYIDSLKRYLDGLTAERTSQNSELNNMQDLVEDYKKKYEDEINKRTAAENDFVTLKKDVDNAYMIKVELQSKVDLLNQEIEFLKVLYDAEISQIHQSVTDTNVILSMDNSRNLDLDSIIAEVKAQYEEIAQRSKEEAEALYHSKYEELQVTVGRHGDSLKEIKIEISELNRVIQRLQGEIAHVKKQCKNVQDAIADAEQRGEHALKDARNKLNDLEEALQQAKEDLARLLRDYQELMNVKLALDVEIATYRKLLEGEECRMSGDLSSNVTVSVTSSTISSNVASKAAFGGSGGRGSSSGGGYSSGSSSYGSGGRQSGSRGGSGGGGSISGGGYGSGGGSGGRYGSGGGSKGGSISGGGYGSGGGKHSSGGGSRGGSSSGGGYGSGGGGSSSVKGSSGEAFGSSVTFSFR
# partner: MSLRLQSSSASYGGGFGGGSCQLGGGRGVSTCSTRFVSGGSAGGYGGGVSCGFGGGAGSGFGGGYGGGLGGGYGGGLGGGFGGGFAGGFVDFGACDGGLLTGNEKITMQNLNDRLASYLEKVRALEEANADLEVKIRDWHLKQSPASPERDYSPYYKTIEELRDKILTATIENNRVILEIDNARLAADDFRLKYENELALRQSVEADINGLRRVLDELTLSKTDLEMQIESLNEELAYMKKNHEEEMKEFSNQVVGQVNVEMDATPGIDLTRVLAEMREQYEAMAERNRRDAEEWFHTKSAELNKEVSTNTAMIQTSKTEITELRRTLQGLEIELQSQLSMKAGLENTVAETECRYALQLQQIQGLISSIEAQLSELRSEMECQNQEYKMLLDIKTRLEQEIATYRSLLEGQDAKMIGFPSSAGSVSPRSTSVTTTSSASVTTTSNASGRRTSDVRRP
# B4: U3 small nucleolar RNA-associated protein 14 homolog A (Homo sapiens), Q9BVJ6 (parent)
# chain: MTANRLAESLLALSQQEELADLPKDYLLSESEDEGDNDGERKHQKLLEAISSLDGKNRRKLAERSEASLKVSEFNVSSEGSGEKLVLADLLEPVKTSSSLATVKKQLSRVKSKKTVELPLNKEEIERIHREVAFNKTAQVLSKWDPVVLKNRQAEQLVFPLEKEEPAIAPIEHVLSGWKARTPLEQEIFNLLHKNKQPVTDPLLTPVEKASLRAMSLEEAKMRRAELQRARALQSYYEAKARREKKIKSKKYHKVVKKGKAKKALKEFEQLRKVNPAAALEELEKIEKARMMERMSLKHQNSGKWAKSKAIMAKYDLEARQAMQEQLSKNKELTQKLQVASESEEEEGGTEDVEELLVPDVVNEVQMNADGPNPWMLRSCTSDTKEAATQEDPEQLPELEAHGVSESEGEERPVAEEEILLREFEERRSLRKRSELSQDAEPAGSQETKDSGSQEVLSELRVLSQKLKENHQSRKQKASSEGTIPQVQREEPAPEEEEPLLLQRPERVQTLEELEELGKEECFQNKELPRPVLEGQQSERTPNNRPDAPKEKKKKEQMIDLQNLLTTQSPSVKSLAVPTIEELEDEEERNHRQMIKEAFAGDDVIRDFLKEKREAVEASKPKDVDLTLPGWGEWGGVGLKPSAKKRRRFLIKAPEGPPRKDKNLPNVIINEKRNIHAAAHQVRVLPYPFTHHWQFERTIQTPIGSTWNTQRAFQKLTTPKVVTKPGHIINPIKAEDVGYRSSSRSDLSVIQRNPKRITTRHKKQLKKCSVD
# B5: Syntenin-2 (Homo sapiens), Q9H190 (parent)
# chain: MSSLYPSLEDLKVDQAIQAQVRASPKMPALPVQATAISPPPVLYPNLAELENYMGLSLSSQEVQESLLQIPEGDSTAVSGPGPGQMVAPVTGYSLGVRRAEIKPGVREIHLCKDERGKTGLRLRKVDQGLFVQLVQANTPASLVGLRFGDQLLQIDGRDCAGWSSHKAHQVVKKASGDKIVVVVRDRPFQRTVTMHKDSMGHVGFVIKKGKIVSLVKGSSAARNGLLTNHYVCEVDGQNVIGLKDKKIMEILATAGNVVTLTIIPSVIYEHMVKKLPPVLLHHTMDHSIPDA
# partner: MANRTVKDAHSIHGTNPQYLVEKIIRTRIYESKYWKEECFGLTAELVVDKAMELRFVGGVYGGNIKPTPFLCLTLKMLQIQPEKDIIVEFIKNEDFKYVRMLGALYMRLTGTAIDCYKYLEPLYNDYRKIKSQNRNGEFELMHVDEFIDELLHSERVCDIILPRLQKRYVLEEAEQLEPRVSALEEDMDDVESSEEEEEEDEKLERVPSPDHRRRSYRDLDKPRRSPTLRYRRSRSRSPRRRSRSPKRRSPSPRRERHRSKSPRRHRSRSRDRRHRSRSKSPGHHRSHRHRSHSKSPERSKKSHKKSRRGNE
# B6: Tuftelin-interacting protein 11 (Homo sapiens), Q9UBB9 (parent)
# chain: MSLSHLYRDGEGRIDDDDDERENFEITDWDLQNEFNPNRQRHWQTKEEATYGVWAERDSDDERPSFGGKRARDYSAPVNFISAGLKKGAAEEAELEDSDDEEKPVKQDDFPKDFGPRKLKTGGNFKPSQKGFAGGTKSFMDFGSWERHTKGIGQKLLQKMGYVPGRGLGKNAQGIINPIEAKQRKGKGAVGAYGSERTTQSMQDFPVVDSEEEAEEEFQKELSQWRKDPSGSKKKPKYSYKTVEELKAKGRISKKLTAPQKELSQVKVIDMTGREQKVYYSYSQISHKHNVPDDGLPLQSQQLPQSGKEAKAPGFALPELEHNLQLLIDLTEQEIIQNDRQLQYERDMVVNLFHELEKMTEVLDHEERVISNLSKVLEMVEECERRMQPDCSNPLTLDECARIFETLQDKYYEEYRMSDRVDLAVAIVYPLMKEYFKEWDPLKDCTYGTEIISKWKSLLENDQLLSHGGQDLSADAFHRLIWEVWMPFVRNIVTQWQPRNCDPMVDFLDSWVHIIPVWILDNILDQLIFPKLQKEVENWNPLTDTVPIHSWIHPWLPLMQARLEPLYSPIRSKLSSALQKWHPSDSSAKLILQPWKDVFTPGSWEAFMVKNIVPKLGMCLGELVINPHQQHMDAFYWVIDWEGMISVSSLVGLLEKHFFPKWLQVLCSWLSNSPNYEEITKWYLGWKSMFSDQVLAHPSVKDKFNEALDIMNRAVSSNVGAYMQPGARENIAYLTHTERRKDFQYEAMQERREAENMAQRGIGVAASSVPMNFKDLIETKAEEHNIVFMPVIGKRHEGKQLYTFGRIVIYIDRGVVFVQGEKTWVPTSLQSLIDMAK
# partner: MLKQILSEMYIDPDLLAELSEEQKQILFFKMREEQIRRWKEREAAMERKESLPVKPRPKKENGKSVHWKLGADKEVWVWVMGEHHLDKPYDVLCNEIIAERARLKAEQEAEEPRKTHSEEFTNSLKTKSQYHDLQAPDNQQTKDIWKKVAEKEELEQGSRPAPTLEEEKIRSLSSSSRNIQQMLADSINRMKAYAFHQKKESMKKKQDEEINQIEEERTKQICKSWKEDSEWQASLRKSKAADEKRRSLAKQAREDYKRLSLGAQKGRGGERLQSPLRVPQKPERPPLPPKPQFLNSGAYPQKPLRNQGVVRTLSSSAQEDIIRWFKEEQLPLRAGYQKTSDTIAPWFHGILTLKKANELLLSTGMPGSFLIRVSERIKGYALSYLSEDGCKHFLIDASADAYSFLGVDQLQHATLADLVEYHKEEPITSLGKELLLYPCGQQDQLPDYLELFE
# B7: Methylmalonyl-CoA epimerase, mitochondrial (Homo sapiens), Q96PE7 (parent)
# chain: MARVLKAAAANAVGLFSRLQAPIPTVRASSTSQPLDQVTGSVWNLGRLNHVAIAVPDLEKAAAFYKNILGAQVSEAVPLPEHGVSVVFVNLGNTKMELLHPLGRDSPIAGFLQKNKAGGMHHICIEVDNINAAVMDLKKKKIRSLSEEVKIGAHGKPVIFLHPKDCGGVLVELEQA
# B8: NAD kinase (Homo sapiens), O95544 (parent)
# chain: MEMEQEKMTMNKELSPDAAAYCCSACHGDETWSYNHPIRGRAKSRSLSASPALGSTKEFRRTRSLHGPCPVTTFGPKACVLQNPQTIMHIQDPASQRLTWNKSPKSVLVIKKMRDASLLQPFKELCTHLMEENMIVYVEKKVLEDPAIASDESFGAVKKKFCTFREDYDDISNQIDFIICLGGDGTLLYASSLFQGSVPPVMAFHLGSLGFLTPFSFENFQSQVTQVIEGNAAVVLRSRLKVRVVKELRGKKTAVHNGLGENGSQAAGLDMDVGKQAMQYQVLNEVVIDRGPSSYLSNVDVYLDGHLITTVQGDGVIVSTPTGSTAYAAAAGASMIHPNVPAIMITPICPHSLSFRPIVVPAGVELKIMLSPEARNTAWVSFDGRKRQEIRHGDSISITTSCYPLPSICVRDPVSDWFESLAQCLHWNVRKKQAHFEEEEEEEEEG
# partner: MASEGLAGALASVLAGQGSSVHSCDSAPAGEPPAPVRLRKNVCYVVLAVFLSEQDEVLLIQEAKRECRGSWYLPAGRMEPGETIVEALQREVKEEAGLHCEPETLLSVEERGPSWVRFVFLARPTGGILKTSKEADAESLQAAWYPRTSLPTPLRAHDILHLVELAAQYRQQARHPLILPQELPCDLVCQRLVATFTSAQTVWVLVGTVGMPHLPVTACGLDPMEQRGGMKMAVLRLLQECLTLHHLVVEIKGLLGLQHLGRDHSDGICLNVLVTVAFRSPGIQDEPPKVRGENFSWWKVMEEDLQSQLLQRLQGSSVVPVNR
# Variants of: B1
# Settings: with cdn2c_human CDKN2C
row,effect of a mutation on the interaction,Variant
1,with no effect,Y120C
2,with no effect,A155T
3,with no effect,S446F
4,with no effect,A482V
5,with no effect,N606H

# Variants of: B1
# Settings: with psa1_human PSMA1, P25786
# psa1_human PSMA1, P25786, sequence (P25786 whole entry): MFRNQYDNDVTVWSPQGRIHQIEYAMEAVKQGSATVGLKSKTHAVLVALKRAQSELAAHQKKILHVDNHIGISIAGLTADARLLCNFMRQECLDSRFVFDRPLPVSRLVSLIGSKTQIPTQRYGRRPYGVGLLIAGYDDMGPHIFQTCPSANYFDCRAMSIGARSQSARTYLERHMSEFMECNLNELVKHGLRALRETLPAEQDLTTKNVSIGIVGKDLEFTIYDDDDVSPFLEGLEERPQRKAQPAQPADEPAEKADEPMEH
row,effect of a mutation on the interaction,Variant
1,with no effect,Y120C
2,with no effect,A155T
3,with no effect,S446F
4,with no effect,A482V
5,with no effect,N606H

# Variants of: B2
# Settings: with mal2_human MAL2, Q969L2
# mal2_human MAL2, Q969L2, sequence (Q969L2 whole entry): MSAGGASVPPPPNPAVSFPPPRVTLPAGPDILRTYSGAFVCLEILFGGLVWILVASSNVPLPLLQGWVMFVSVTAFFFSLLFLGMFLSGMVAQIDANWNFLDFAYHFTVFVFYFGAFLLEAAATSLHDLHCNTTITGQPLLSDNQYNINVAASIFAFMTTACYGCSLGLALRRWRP
row,effect of a mutation on the interaction,Variant
1,disrupting interaction strength,R72Q

# Variants of: B2
# Settings: with rtn3_human RTN3, O95197
# rtn3_human RTN3, O95197, sequence (O95197 whole entry): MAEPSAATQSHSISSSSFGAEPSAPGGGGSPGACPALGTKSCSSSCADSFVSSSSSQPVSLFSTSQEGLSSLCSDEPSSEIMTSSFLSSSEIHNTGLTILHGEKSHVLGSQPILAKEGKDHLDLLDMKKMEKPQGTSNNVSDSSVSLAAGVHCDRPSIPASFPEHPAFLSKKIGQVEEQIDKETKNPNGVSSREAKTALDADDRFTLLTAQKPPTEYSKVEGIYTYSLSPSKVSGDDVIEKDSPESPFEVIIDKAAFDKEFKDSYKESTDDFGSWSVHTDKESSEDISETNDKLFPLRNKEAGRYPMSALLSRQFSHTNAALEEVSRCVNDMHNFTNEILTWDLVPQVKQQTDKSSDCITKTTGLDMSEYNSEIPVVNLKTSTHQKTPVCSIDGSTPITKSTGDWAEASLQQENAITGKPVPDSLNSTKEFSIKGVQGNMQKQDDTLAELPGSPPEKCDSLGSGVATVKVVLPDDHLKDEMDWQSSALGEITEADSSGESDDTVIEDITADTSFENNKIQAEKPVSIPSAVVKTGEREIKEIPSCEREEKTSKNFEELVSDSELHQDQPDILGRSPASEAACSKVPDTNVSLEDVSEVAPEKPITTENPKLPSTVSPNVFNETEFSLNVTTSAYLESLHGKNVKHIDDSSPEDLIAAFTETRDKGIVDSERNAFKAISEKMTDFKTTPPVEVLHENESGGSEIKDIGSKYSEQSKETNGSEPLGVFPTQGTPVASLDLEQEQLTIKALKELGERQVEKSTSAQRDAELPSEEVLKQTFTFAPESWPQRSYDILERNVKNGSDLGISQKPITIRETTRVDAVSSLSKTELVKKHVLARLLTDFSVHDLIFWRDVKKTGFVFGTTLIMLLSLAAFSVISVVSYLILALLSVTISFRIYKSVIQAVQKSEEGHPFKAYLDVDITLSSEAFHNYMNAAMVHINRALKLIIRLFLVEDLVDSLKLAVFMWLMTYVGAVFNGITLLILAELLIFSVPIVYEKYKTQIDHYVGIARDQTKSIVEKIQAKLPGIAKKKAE
row,effect of a mutation on the interaction,Variant
1,with no effect,R72Q

# Variants of: B2
# Settings: with atrap_human AGTRAP
# Target sequence in this assay (Q6RW13 whole entry): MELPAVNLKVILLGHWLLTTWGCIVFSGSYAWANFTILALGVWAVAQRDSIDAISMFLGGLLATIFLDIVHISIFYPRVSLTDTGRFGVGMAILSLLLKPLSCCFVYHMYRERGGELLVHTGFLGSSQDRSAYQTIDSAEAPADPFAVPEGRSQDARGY
row,effect of a mutation on the interaction,Variant
1,with no effect,R72Q

# Variants of: B3
# Settings: with KRT13, P13646
row,effect of a mutation on the interaction,Variant
1,with no effect,A517G

# Variants of: B4
# Settings: with cep70_human CEP70, Q8NHQ1
# cep70_human CEP70, Q8NHQ1, sequence (Q8NHQ1 whole entry): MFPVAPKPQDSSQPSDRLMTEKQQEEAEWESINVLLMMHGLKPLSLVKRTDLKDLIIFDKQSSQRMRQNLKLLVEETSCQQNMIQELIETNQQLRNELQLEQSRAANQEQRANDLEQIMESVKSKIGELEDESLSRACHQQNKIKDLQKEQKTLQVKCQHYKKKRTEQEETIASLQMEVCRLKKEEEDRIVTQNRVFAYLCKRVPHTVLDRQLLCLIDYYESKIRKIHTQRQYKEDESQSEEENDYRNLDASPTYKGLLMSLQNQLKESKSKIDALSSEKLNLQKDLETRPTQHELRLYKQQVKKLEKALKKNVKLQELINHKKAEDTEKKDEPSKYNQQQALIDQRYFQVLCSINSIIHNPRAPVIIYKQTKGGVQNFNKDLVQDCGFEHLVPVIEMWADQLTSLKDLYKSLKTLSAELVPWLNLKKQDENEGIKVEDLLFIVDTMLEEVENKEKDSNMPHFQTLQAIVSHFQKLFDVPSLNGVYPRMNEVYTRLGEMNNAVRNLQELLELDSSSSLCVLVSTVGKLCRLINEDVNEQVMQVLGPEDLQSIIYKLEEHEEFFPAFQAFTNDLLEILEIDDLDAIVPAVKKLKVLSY
row,effect of a mutation on the interaction,Variant
1,with no effect,V256M

# Variants of: B4
# Settings: with ldoc1_human LDOC1, O95751
# ldoc1_human LDOC1, O95751, sequence (O95751 whole entry): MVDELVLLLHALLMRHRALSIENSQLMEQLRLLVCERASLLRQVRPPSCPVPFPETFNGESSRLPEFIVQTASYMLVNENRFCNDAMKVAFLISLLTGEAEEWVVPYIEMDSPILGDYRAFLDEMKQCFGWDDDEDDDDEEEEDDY
row,effect of a mutation on the interaction,Variant
1,with no effect,V487A
2,with no effect,T579A

# Variants of: B5
# Settings: with pr38a_human PRPF38A
row,effect of a mutation on the interaction,Variant
1,disrupting interaction strength,G242R
2,with no effect,V182M
3,disrupting interaction strength,G225R

# Variants of: B6
# Settings: with sh24a_human SH2D4A
row,effect of a mutation on the interaction,Variant
1,with no effect,R8Q
2,with no effect,S688L

# Variants of: B7
# Settings: with atrap_human AGTRAP
# Target sequence in this assay (Q6RW13 whole entry): as the sequence (Q6RW13 whole entry) above
row,effect of a mutation on the interaction,Variant
1,with no effect,R143H
2,with no effect,A76V

# Variants of: B8
# Settings: with nud18_human NUDT18, Q6ZVK8
row,effect of a mutation on the interaction,Variant
1,with no effect,R249W
